Data set [1] relates to T1, N-terminal-valine fructosylated peptide having an amino acid sequence represented by SEQ ID NO: 2.
T1 sequence: VHL

Data set [2] concerns T2, f-VHLTPE.
T2 sequence: VHLTPE

For data set [3], the system named is T3, f-VHLTP.
T3 sequence: VHLTP

Data set [4] relates to T4, f-VHLT.
T4 sequence: VHLT

In data set [5] the test system is T5, fructosyl valyl histidine.
T5 sequence: VH

For the substance “defructosylation enzyme originating from a plant belonging to the family Zingiberaceae (Zingiber officinale rhizome)”, in data set [1], the Absorbance at 700 nm (mAbs), colour development of DA-64 (hydrogen peroxide produced) amounted to 570 mAbs; the “capillary electrophoresis peak area after 16 hours of reaction at 37° C. (defructosylation)” value is “the peak attributed to f-VHL does not exist and the peak attributed to VHL is increased (area: 32 mABU×sec)”; the “enzyme activity with the peptide as a substrate” value (“enzyme activity with the peptide” below) was “the enzyme is effective on fructosyl valine and at least fructosyl peptides having amino acid sequences represented by SEQ ID NOs: 1 to 5”. Also, in data set [2], the Absorbance at 700 nm (mAbs), colour development of DA-64 (hydrogen peroxide produced) was 223 mAbs; the “enzyme activity with the peptide” value is “the enzyme is effective on fructosyl valine and at least fructosyl peptides having amino acid sequences represented by SEQ ID NOs: 1 to 5”. Moreover, in data set [3], the Absorbance at 700 nm (mAbs), colour development of DA-64 (hydrogen peroxide produced) is 198 mAbs; the “enzyme activity with the peptide” value is “the enzyme is effective on fructosyl valine and at least fructosyl peptides having amino acid sequences represented by SEQ ID NOs: 1 to 5”. In data set [4], the Absorbance at 700 nm (mAbs), colour development of DA-64 (hydrogen peroxide produced) is 558 mAbs; the “enzyme activity with the peptide” value is “the enzyme is effective on fructosyl valine and at least fructosyl peptides having amino acid sequences represented by SEQ ID NOs: 1 to 5”. Besides, in data set [5], the Absorbance at 700 nm (mAbs), colour development of DA-64 (hydrogen peroxide produced) is 735 mAbs; the “Michaelis constant (Km), Lineweaver-Burk's plots of enzyme activity (glucosone production)” value is recorded as “the Km value of the enzyme for fructosyl valyl histidine: 1.2 mM”; the “absorbance at 550 nm (glucosone produced, glucose oxidase/peroxidase colour system)” value was “The absorbance was found to increase in accordance with the increase in concentration of fructosyl valyl histidine”; the “enzyme activity with the peptide” value is “the enzyme is effective on fructosyl valine and at least fructosyl peptides having amino acid sequences represented by SEQ ID NOs: 1 to 5”.

The values above are taken from patent US20070054344.
